Assay results reported in patent publication US20260098080A1, “A MODIFIED PROTEIN SCAFFOLD AND USE THEREOF” (EVOLVERITAS BIOTECHNOLÓGIAI KORLÁTOLT FELELOSSÉGU TÁRSASÁG, priority 2022, published 2026).
Substitutions are numbered along the chain they refer to. Where no end group is shown, it is not given here.

Tests used:
[1] = molecular target: T1, human MASP-2 (in normal human serum) (human, UniProt O00187 16-686); test: cell-based or functional assay
[2] = molecular target: rat MASP-2 (in rat serum) (rat, UniProt Q9JJS8 20-685); test: cell-based or functional assay
rat MASP-2 (in rat serum), sequence (Q9JJS8 20-685 limits assumed): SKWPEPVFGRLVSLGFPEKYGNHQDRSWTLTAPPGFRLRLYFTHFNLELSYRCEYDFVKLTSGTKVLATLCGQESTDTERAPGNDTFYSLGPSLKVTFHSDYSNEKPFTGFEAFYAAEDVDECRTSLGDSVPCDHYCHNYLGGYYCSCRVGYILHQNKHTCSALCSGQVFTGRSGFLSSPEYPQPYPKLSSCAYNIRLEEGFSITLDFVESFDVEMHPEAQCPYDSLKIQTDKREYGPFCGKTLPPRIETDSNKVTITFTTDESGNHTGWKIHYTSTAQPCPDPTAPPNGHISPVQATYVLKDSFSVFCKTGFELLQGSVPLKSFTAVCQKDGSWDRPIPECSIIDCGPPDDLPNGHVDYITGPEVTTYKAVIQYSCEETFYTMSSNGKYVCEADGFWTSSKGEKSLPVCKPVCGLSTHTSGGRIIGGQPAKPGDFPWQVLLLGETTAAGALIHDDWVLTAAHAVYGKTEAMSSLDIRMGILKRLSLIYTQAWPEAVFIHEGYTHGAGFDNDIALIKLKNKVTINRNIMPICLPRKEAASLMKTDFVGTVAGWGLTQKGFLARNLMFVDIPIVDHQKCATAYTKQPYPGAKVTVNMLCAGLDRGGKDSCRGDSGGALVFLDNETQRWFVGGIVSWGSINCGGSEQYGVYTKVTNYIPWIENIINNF

[3] = molecular target: T2, rat MASP-2cf CCP1-CCP2-SP (rat, UniProt Q9JJS8 298-685); test: enzyme inhibition, tight-binding fit
T2 construct: range 298-685; Mw 42309 Da; also called rat MASP-2 catalytic fragment
T2 sequence (Q9JJS8 other isoform, or with tags, fused parts or gaps limits assumed, form in doubt): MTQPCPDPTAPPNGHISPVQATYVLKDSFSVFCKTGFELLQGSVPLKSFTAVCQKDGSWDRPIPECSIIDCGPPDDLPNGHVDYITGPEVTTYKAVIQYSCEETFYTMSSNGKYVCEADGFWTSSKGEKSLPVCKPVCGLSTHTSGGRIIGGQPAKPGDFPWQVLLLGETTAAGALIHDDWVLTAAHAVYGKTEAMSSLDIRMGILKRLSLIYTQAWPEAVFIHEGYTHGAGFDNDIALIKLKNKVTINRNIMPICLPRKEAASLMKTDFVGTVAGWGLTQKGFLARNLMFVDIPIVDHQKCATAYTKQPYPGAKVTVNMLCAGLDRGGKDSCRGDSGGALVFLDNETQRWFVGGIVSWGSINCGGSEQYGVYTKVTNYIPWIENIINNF

[4] = molecular target: T3, human MASP-2cf CCP1-CCP2-SP (human, UniProt O00187 298-686, limits assumed); test: enzyme inhibition, tight-binding fit
T3 construct: domain: CCP1-CCP2-SP; also called human MASP-2 catalytic fragment
T3 sequence (O00187 298-686 limits assumed): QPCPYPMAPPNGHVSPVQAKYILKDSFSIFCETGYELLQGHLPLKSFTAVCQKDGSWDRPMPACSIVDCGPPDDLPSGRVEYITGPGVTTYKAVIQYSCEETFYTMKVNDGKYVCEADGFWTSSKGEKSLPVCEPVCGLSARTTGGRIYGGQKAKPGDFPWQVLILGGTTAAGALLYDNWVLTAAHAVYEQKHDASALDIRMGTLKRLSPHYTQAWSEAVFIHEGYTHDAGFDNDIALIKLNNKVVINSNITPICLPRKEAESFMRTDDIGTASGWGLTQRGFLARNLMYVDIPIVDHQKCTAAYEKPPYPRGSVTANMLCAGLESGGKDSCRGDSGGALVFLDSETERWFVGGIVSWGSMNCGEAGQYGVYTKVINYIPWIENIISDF

[5] = molecular target: T2, rat MASP-2cf CCP1-CCP2-SP; test: SPR, target immobilised
[6] = molecular target: T3, human MASP-2cf CCP1-CCP2-SP; test: SPR, target immobilised
[7] = molecular target: T1, human MASP-2 (in normal human serum); test: cell-based or functional assay; remark: listed apart in the source
[8] = molecular target: fIXa (human, UniProt P00740 47-461); test: cell-based or functional assay
fIXa, sequence (P00740 47-461 limits assumed): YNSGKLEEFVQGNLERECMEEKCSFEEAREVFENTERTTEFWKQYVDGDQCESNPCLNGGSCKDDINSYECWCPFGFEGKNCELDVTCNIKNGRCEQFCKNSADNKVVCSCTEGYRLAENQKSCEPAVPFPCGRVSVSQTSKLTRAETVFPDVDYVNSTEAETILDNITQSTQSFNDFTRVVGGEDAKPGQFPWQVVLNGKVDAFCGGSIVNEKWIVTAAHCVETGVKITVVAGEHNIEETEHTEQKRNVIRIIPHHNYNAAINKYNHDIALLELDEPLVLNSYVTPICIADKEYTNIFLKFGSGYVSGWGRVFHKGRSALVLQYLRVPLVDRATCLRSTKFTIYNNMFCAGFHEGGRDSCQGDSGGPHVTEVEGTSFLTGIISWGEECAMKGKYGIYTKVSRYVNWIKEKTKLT

[9] = molecular target: fXIa (human, UniProt P03951 19-625); test: cell-based or functional assay
fXIa, sequence (P03951 19-625 limits assumed): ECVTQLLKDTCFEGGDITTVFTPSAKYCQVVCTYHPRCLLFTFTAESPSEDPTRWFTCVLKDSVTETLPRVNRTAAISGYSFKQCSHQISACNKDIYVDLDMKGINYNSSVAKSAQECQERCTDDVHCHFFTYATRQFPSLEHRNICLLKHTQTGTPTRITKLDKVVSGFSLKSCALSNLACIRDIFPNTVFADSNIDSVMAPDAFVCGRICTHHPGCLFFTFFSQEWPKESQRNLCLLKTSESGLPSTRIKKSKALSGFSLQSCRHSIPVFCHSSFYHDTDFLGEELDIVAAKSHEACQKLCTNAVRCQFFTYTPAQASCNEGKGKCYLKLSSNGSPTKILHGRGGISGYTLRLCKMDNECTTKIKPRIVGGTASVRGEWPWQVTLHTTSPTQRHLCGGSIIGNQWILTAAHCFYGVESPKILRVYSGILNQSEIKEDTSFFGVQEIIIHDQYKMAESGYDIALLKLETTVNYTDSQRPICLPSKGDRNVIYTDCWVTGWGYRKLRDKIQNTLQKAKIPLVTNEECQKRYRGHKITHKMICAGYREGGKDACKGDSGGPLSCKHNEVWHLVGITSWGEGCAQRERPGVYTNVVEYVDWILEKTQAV

[10] = molecular target: T4, fXIIa (human, UniProt P00748 20-615, limits assumed); test: cell-based or functional assay
T4 sequence (looked up): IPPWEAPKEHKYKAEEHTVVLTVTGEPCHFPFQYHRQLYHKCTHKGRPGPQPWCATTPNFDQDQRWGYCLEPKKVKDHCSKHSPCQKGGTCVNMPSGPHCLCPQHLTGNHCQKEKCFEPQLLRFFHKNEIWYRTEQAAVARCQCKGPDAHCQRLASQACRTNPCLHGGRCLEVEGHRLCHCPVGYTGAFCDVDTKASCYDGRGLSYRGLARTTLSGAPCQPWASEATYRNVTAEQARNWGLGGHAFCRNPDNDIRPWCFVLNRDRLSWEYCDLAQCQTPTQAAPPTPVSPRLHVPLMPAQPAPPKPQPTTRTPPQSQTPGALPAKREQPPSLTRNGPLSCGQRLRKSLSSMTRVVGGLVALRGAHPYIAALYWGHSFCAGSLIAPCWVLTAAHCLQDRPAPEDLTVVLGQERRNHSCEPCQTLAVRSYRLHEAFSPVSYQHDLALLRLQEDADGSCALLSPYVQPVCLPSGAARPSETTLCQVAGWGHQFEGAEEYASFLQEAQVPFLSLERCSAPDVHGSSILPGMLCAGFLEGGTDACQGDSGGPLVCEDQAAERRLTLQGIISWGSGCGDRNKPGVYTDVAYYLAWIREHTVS

[11] = molecular target: T5, MASP-1 (UniProt P48740 298-699, limits assumed); test: cell-based or functional assay
T5 sequence (looked up): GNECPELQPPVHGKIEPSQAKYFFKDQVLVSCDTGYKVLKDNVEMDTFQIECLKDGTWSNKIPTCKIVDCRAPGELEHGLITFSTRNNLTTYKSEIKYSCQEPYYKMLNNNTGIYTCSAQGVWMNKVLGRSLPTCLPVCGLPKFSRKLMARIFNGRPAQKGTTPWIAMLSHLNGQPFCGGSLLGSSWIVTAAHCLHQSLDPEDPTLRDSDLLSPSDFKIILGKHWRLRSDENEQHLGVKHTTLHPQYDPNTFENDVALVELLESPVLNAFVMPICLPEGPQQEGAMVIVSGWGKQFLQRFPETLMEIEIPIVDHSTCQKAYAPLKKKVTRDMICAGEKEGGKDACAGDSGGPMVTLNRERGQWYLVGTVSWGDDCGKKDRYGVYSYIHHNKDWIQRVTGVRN

T1 sequence (O00187 16-686 limits assumed): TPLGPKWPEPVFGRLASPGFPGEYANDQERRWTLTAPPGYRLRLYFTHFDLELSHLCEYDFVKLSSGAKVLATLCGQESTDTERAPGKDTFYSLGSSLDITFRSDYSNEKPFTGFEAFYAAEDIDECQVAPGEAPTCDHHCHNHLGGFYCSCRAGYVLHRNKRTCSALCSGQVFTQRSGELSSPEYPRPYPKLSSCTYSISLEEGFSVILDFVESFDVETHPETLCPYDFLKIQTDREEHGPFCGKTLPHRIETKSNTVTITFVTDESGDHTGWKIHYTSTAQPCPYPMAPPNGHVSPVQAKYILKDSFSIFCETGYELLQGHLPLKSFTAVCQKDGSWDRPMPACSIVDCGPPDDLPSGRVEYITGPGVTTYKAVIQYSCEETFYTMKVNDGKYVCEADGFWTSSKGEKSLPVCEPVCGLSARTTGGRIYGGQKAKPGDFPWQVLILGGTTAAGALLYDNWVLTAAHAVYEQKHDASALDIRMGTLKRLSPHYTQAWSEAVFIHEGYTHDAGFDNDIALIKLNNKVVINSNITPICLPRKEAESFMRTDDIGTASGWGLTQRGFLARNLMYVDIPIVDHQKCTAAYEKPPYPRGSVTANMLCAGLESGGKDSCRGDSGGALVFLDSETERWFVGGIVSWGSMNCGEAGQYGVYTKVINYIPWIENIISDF

B1: EVO2 (designed binder)
chain: KPDFCFLEEDPGPCRAVKRRYFYNNQTKQCERFKYGGCLGNMNNFETLEECKNICEDG
modifications: not fully specified; ends and bridges not checked
notes: Modified Kunitz domain TFPI-D2 of human TFPI-1; recombinant from E. coli, freed from a His6-S100A4 fusion by TEV protease; also called TFMI-2b
For B1, the “IC50, lectin pathway C4 deposition, human serum” value (“IC50 … human serum” for short) [1] was 138 nM, the “Relative potency, lectin pathway, human serum” value (“Relative potency … human serum” for short) [1] was 1 fold vs EVO2 and the “IC50, lectin pathway C4 deposition, rat serum” value (“IC50 … rat serum” for short) [2] was 106 nM. The “Relative potency, lectin pathway, rat serum” value (shortened to “Relative potency … rat serum”) [2] was 1 fold vs EVO2, the Ki [3] was 0.24 nM and the Ki [4] was 0.65 nM. For the same binder, the Kd [5] was 3.63 nM, the Relative affinity [5] was 1 fold vs EVO2 and the koff [5] was 0.00107 s⁻¹. For the same binder, the kon [5] was 310000 M⁻¹ s⁻¹, the Kd [6] was 1.79 nM and the Relative affinity [6] was 1 fold vs EVO2. The koff [6] was 0.0014 s⁻¹ and the kon [6] was 809000 M⁻¹ s⁻¹.

B2: EVO223 (designed binder)
chain: B1 chain with E9N, V17A, K18A, R19V, K34Y, E46V
notes: Modified TFPI-D2 Kunitz domain; made as m1
For B2, the “IC50 … human serum” value [1] was 9.9 nM, the “Relative potency … human serum” value [1] was 14 fold vs EVO2 and the “IC50 … rat serum” value [2] was 12 nM. For the same binder, the “Relative potency … rat serum” value [2] was 8.9 fold vs EVO2, the Ki [3] was 0.09 nM and the Kd [5] was 0.108 nM. It also gave a Relative affinity [5] of 33.6 fold vs EVO2, a koff [5] of 7.53e-05 s⁻¹ and a kon [5] of 696000 M⁻¹ s⁻¹. The Kd [6] was 0.054 nM, the Relative affinity [6] was 33.1 fold vs EVO2 and the koff [6] was 4.77e-05 s⁻¹. For the same binder, the kon [6] was 882000 M⁻¹ s⁻¹.

B3: EVO21c (designed binder)
chain: B1 chain with V17L, K34G, L39F, E46V
modifications: not fully specified; cysteine pairing not given here
notes: as for B2
With B3 the “Relative potency (relative human lectin pathway inhibitory efficiency compared to EVO2)” value [7] was 22.3 fold relative to EVO2, the “IC50 … human serum” value [1] was 6.2 nM and the “Relative potency … human serum” value [1] was 22.4 fold vs EVO2. The “IC50 … rat serum” value [2] was 12.4 nM, the “Relative potency … rat serum” value [2] was 8.5 fold vs EVO2 and the Ki [3] was 0.007 nM. It also gave a Ki [4] of 0.065 nM.

B4: EVO23 (designed binder)
chain: B1 chain with E9N, V17L, K34Y, L39F, E46V
modifications: not fully specified; cysteine pairing not given here
notes: as for B2
B4 was tested, and the “IC50 … human serum” value [1] was 2.9 nM, the “Relative potency … human serum” value [1] was 47.1 fold vs EVO2 and the “IC50 … rat serum” value [2] was 8.1 nM. For the same binder, the “Relative potency … rat serum” value [2] was 13.1 fold vs EVO2, the “IC50, enzyme activity on synthetic substrate” value (“IC50, enzyme activity” below) [8] was 2600 nM and the “IC50, enzyme activity” value [9] was 500 nM. The “IC50, enzyme activity” value [10] was 3300 nM, the “IC50, enzyme activity” value [11] was 6500 nM and the Kd [5] was 0.674 nM. The Relative affinity [5] was 5.4 fold vs EVO2, the koff [5] was 0.000662 s⁻¹ and the kon [5] was 982000 M⁻¹ s⁻¹. The Kd [6] was 0.094 nM, the Relative affinity [6] was 19.1 fold vs EVO2 and the koff [6] was 0.000197 s⁻¹. For the same binder, the kon [6] was 2.1e+06 M⁻¹ s⁻¹.

B5: EVO221 (designed binder)
chain: B1 chain with E9N, P13V, V17A, K18A, R19V, K34Y, E46V
modifications: not fully specified; cysteine pairing not given here
notes: as for B2
For B5, the “Relative potency (relative human lectin pathway inhibitory efficiency compared to EVO2)” value [7] was 10.8 fold relative to EVO2, the “IC50 … human serum” value [1] was 12.7 nM and the “Relative potency … human serum” value [1] was 10.9 fold vs EVO2. The “IC50 … rat serum” value [2] was 11 nM, the “Relative potency … rat serum” value [2] was 9.7 fold vs EVO2 and the Ki [3] was 0.1 nM. For the same binder, the Ki [4] was 0.19 nM, the Kd [5] was 0.17 nM and the Relative affinity [5] was 21.4 fold vs EVO2. It also gave a koff [5] of 0.000113 s⁻¹, a kon [5] of 664000 M⁻¹ s⁻¹ and a Kd [6] of 0.127 nM. The Relative affinity [6] was 14.1 fold vs EVO2, the koff [6] was 0.000131 s⁻¹ and the kon [6] was 1.03e+06 M⁻¹ s⁻¹.
